In PMC10167749:

Target: recombinant scavenger receptor cysteine-rich domain 1 of Gp340 (salivary agglutinin), expressed in insect cells (UniProt Q9UGM3)
Experiment: SPR; Biacore T200; iSRCR1 immobilised on a CM5 chip by amine coupling; analyte GtfB-CD 2-8 uM in 20 mM HEPES pH 7.4, 150 mM NaCl, 1 mM CaCl2, 20 ul/min; each concentration in triplicate; kinetic fit with Biacore Insight Evaluation software

Sequence of recombinant scavenger receptor cysteine-rich domain 1 of Gp340 (salivary agglutinin), expressed in insect cells (Q9UGM3 20-2413): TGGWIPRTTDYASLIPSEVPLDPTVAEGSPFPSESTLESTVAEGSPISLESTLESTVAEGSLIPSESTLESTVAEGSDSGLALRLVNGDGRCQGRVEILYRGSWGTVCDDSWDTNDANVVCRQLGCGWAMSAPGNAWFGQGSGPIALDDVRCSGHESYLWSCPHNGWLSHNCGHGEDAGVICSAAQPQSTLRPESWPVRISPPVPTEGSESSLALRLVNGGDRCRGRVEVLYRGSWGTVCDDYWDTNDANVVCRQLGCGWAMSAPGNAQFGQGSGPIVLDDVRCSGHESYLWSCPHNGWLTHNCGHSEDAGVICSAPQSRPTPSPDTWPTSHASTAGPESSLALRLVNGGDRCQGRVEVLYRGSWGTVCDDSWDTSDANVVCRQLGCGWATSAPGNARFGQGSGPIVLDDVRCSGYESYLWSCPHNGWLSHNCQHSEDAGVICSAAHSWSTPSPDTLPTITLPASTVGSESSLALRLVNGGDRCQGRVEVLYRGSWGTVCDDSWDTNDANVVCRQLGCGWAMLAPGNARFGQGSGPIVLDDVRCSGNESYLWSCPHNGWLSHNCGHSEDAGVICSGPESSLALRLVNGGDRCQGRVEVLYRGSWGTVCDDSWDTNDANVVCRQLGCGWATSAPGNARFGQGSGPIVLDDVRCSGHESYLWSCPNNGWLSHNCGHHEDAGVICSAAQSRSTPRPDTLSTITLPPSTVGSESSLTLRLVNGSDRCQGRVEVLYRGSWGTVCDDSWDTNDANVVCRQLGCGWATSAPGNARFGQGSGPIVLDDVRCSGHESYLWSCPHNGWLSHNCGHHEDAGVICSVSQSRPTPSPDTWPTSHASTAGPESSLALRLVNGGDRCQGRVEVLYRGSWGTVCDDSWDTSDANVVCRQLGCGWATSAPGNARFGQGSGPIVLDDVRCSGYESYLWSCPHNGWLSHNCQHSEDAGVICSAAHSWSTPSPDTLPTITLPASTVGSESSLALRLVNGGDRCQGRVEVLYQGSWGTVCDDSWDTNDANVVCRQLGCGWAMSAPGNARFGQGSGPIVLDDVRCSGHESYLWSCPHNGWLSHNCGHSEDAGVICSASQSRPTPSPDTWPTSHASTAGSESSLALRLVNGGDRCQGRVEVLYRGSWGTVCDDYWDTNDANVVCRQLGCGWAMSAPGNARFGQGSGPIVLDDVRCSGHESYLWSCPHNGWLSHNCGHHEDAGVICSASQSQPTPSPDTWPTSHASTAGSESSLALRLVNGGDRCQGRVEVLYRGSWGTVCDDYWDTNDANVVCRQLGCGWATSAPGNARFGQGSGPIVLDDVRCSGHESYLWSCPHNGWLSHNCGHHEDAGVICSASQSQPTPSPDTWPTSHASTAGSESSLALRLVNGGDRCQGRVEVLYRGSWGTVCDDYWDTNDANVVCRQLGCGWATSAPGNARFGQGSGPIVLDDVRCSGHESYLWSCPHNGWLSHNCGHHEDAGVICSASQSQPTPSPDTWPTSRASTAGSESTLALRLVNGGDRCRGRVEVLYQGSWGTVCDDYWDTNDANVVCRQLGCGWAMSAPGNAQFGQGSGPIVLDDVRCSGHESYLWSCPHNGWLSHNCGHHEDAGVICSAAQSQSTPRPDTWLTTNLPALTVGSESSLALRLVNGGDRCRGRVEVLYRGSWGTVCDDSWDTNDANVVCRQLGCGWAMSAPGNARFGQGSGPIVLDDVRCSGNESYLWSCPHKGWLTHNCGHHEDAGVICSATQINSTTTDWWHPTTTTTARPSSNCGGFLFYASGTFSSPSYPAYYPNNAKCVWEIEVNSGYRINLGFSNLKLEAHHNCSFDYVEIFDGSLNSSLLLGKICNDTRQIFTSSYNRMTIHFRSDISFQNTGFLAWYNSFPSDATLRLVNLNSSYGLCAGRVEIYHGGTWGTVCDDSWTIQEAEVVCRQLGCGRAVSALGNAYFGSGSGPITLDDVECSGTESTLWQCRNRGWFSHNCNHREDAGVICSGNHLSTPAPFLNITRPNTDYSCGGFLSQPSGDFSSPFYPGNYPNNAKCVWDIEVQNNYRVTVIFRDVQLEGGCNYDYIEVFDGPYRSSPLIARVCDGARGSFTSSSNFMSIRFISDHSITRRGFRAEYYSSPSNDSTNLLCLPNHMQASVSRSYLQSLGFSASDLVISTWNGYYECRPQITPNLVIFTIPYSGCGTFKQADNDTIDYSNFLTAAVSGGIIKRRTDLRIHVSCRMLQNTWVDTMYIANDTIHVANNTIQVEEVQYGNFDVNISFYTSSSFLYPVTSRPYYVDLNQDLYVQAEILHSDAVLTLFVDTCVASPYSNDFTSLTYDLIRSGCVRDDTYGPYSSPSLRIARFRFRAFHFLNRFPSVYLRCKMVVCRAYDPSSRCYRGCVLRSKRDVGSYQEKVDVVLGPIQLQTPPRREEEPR

B1: catalytic domain of Streptococcus mutans (UA159) glucosyltransferase GtfB, residues 191-1051 (domain or fragment)
chain: LHFDETGAYTDTSIDTVNKDIVTTRSNLYKKYNQVYDRSAQSFEHVDHYLTAESWYRPKYILKDGKTWTQSTEKDFRPLLMTWWPSQETQRQYVNYMNAQLGINKTYDDTSNQLQLNIAAATIQAKIEAKITTLKNTDWLRQTISAFVKTQSAWNSDSEKPFDDHLQNGAVLYDNEGKLTPYANSNYRILNRTPTNQTGKKDPRYTADNTIGGYEFLLANDVDNSNPVVQAEQLNWLHFLMNFGNIYANDPDANFDSIRVDAVDNVDADLLQIAGDYLKAAKGIHKNDKAANDHLSILEAWSDNDTPYLHDDGDNMINMDNKLRLSLLFSLAKPLNQRSGMNPLITNSLVNRTDDNAETAAVPSYSFIRAHDSEVQDLIRDIIKAEINPNVVGYSFTMEEIKKAFEIYNKDLLATEKKYTHYNTALSYALLLTNKSSVPRVYYGDMFTDDGQYMAHKTINYEAIETLLKARIKYVSGGQAMRNQQVGNSEIITSVRYGKGALKATDTGDRTTRTSGVAVIEGNNPSLRLKASDRVVVNMGAAHKNQAYRPLLLTTDNGIKAYHSDQEAAGLVRYTNDRGELIFTAADIKGYANPQVSGYLGVWVPVGAAADQDVRVAASTAPSTDGKSVHQNAALDSRVMFEGFSNFQAFATKKEEYTNVVIAKNVDKFAEWGVTDFEMAPQYVSSTDGSFLDSVIQNGYAFTDRYDLGISKPNKYGTADDLVKAIKALHSKGIKVMADWVPDQMYAFPEKEVVTATRVDKFGKPVEGSQIKSVLYVADSKSSGKDQQAKYGGAFLEELQAKYPELFARKQISTGVPMDPSVKIKQWSAKYFNGTNILGRGAGYVLKDQATNTYFNISDNK
koff: 0.00152 s⁻¹
kon: 2990 M⁻¹ s⁻¹
